Assay results: the supplement of paper PMC10567573

B1: ALDH8A1 (parent)
chain: WSSRSPQERSRVLNQVADLLEQSL
B2: PRPH (parent)
chain: RTFGPPPSLSPGAFSYSSSSRFSS

Variants of: B1
Assay: protein stability index of a GFP-peptide fusion (GPS, HEK-293T) (PSI 1-6); higher = more stable
Settings: c terminus: a fixed tail appended
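Note: lentivirally expressed fusions sorted by FACS into six bins by GFP to DsRed ratio, PSI derived from sequencing read proportions per bin multiplied by bin number.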

Protein stability index: each site, then its substitutions
W1: E 3.54; G 3.44; C 2.78; A 3.21; F 2.67; D 3.69

Variants of: B2
Assay: as above
Settings: c terminus: a fixed tail appended

Protein stability index of substitutions, site by site:
F22: H 3.55; P 3.27; A 3.4; V 3.8; L 3.72; D 3.94; S 4.18; K 4.21; Q 3.78; M 3.73; G 4.16; Y 3.22; I 3.81; N 3.44; T 4.17; E 4.03; W 2.83; C 3.82
S24: W 2.82; H 3.55; F 1.96; R 3.85; Y 2.46; N 3.44; D 3.19; K 3.89; C 2.83; M 2.55; I 3.01; Q 3.31; T 3.23; V 2.3; E 3.38; L 2.27
R21: M 2.8; L 2.56; C 3.19; D 3.3; H 3.48; V 3.1; E 3.22; W 1.75; T 3.18; A 2.46; K 3.5; Q 3.23; S 3.02; N 3.03; F 2.25; Y 2.08; I 2.44; G 2.85; P 3.25
S23: E 2.79; P 3.59; D 2.9; H 3.02; F 3.09; C 3.02; N 3.36; G 2.6; L 2.93; K 3.48; I 2.52; A 3.17; M 2.88; V 2.85; Q 3.47; Y 2.66; R 3.52; T 3.23
S20: G 2.99; I 2.43; A 3.71; R 3.41; P 3.45; T 2.94; H 2.96; C 2.33; N 3.31; V 2.86; E 2.76; Y 2.74; F 2.35; M 3.05; K 3.81; W 2.09; Q 3.57; D 3.23; L 2.48
S18: D 2.94; E 3.57; T 3.25; K 3.9; A 2.76; M 2.75; H 2.8; C 3.5; P 2.93; L 2.59; F 2.45; G 3.38; Q 3.5; V 3.24; Y 2.98; N 3.22; W 2.77; I 2.66; R 3.38
Y16: D 3.9; I 3.31; W 3.36; K 3.66; C 3.18; A 3.81; F 2.99; P 4.1; S 3.86; V 3.69; G 4.28; L 3.95; R 3.92; Q 3.62; H 4.04; E 3.98; T 3.64
S19: R 3.5; H 2.81; M 2.26; T 3.23; I 2.45; E 3.55; K 3.7; Q 2.66; Y 2.38; F 2.38; W 2.19; G 3.46; L 2.93; A 3.08; N 3.46; P 3.12; C 2.66; V 3.63
S17: R 2.99; T 3.19; A 3.02; K 3.04; H 2.54; N 3.71; Y 3.07; C 2.85; P 3.16; D 3.06; Q 3.1; I 2.55; V 2.75; L 2.53; F 2.37; E 3.59; W 2.27
